US20230348571A1 (VANDERBILT UNIVERSITY, published 2023)

T1: Jo-1 (UniProt P12081 2-509)
T1 construct: Kit antigen
T1 sequence: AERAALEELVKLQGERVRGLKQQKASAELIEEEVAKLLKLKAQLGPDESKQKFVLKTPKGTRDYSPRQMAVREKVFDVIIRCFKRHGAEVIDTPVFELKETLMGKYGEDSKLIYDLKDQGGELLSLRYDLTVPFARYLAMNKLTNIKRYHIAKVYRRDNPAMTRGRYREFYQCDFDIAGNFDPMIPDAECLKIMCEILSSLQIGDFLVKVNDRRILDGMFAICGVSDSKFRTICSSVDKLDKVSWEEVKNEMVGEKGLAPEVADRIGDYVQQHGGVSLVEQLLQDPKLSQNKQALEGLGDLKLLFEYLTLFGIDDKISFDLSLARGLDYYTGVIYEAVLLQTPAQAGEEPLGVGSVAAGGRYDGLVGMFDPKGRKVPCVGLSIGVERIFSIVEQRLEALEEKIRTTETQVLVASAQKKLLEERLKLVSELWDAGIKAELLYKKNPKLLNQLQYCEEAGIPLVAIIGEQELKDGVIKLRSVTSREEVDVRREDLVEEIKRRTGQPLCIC

T2: SS-B/La (UniProt P05455 1-408)
T2 construct: Kit antigen
T2 sequence: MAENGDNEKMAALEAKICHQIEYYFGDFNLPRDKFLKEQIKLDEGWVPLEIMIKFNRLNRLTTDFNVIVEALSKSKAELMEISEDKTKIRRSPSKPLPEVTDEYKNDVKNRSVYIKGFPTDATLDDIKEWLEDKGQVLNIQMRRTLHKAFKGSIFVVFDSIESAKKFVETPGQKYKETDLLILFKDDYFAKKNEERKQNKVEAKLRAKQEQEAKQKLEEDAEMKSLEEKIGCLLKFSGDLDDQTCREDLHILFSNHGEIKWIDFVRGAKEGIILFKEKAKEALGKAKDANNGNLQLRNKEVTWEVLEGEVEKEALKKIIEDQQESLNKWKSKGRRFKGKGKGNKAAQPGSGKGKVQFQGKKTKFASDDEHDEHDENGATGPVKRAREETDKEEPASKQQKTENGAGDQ

T3: Scl 70 (UniProt P11387 2-765)
T3 construct: Kit antigen
T3 sequence: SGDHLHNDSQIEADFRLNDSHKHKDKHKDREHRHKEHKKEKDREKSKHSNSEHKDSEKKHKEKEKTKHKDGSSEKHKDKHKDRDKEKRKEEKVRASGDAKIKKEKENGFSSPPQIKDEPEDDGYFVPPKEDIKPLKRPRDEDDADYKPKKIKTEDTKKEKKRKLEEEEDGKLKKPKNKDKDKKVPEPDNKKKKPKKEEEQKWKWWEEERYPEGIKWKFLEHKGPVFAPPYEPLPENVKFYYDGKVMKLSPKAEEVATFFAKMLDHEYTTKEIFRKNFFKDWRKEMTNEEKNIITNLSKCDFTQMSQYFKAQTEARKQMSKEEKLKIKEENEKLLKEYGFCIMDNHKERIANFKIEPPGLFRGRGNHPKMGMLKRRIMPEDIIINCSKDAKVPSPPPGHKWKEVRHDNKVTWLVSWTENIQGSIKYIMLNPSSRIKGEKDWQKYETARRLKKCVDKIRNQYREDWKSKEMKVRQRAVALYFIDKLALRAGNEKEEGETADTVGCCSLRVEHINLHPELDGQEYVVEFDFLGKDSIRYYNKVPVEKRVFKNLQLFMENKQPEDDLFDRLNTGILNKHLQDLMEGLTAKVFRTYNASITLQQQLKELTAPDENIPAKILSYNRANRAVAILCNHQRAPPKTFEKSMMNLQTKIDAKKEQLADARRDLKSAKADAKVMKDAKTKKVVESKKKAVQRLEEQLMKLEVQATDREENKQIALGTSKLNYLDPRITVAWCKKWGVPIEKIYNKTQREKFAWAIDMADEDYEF

T4: centromere B (UniProt P07199 2-599)
T4 construct: Kit antigen
T4 sequence: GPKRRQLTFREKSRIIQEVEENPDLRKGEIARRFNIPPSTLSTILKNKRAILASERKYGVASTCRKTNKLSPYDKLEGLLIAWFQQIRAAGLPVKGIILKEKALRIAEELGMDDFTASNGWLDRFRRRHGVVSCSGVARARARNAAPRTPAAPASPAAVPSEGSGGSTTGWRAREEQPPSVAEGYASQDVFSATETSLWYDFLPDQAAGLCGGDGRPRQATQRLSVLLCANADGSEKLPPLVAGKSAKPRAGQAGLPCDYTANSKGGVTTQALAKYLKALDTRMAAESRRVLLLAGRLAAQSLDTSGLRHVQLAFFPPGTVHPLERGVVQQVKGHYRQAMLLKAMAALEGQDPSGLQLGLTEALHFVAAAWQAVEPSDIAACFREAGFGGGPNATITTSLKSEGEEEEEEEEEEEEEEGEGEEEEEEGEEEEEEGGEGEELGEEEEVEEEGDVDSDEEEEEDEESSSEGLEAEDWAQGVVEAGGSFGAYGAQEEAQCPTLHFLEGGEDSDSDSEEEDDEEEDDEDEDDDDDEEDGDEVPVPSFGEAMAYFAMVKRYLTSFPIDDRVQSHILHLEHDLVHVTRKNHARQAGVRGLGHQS

B1: 46472-12 (antibody, V domains shown)
VH: QVQLVQSGAEVQKPGASVKVSCKASGYRFDIFDINWVRQASGQGPEWMGWMNPNSGNTGYAHKFQGRVTMTRDSSTNTAYMELSSLTFEDTAVYYCARDRVERTGNVGFGYYAMDVWGQGTTVIVSS
VL: DIQMTQSPSSLSASVGDRVTITCRASQSITNYLNWYQQRPGKAPRLLIYAASSLQSGVPSRFSGSGSGTDFTLTISSLQPEDFGTFYCQQTYSSPSYTFGQGTKLEMK
B2: 46472-6 (antibody, V domains shown)
VH: QLQLQESGPGLVKPSETLFLFCSVSGGSISISTHYWEWIRQPPGKGLEWIGSFYSSGTTYYNPSLKGRVTISADTSKSQISLKMSSVTAADTAVYYCARRPQYLLLSMTTGRRHHDFVMDVWGQGTTVTVSS
VL: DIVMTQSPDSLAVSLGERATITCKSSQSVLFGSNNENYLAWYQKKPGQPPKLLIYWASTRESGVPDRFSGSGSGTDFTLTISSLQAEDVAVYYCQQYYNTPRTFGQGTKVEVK
B3: 46472-4 (antibody, V domains shown)
VH: EVPLLESGGGLVQPGGSLRLSCVASGFPFSSFALSWVRQAPGKGLEWVSTINTNGGTTYYLDSVKGRFTVSRDNSKNTLFLQMSSLRAEDTAIYYCAKDLLSHSGTYSAGSTFDYWGQGTLVIVSS
VL: DIQMTQSPSSLSASVGDRVTITCRASQSIGVYLNWYQQKPGKAPKLLIHATSNLQSGVPSRFSCSGSGTEFTLTISSLQPEDFATYYCQESYSTNTFGQGTKLEIK
B4: 46472-1 (antibody, V domains shown)
VH: QVQLVQSGAEVKKDGSSVKVSCEASGGTFSDYAISWVRQAPGQGLEWMGRIIPILGITNYAQQFQTRVTITADKSTSAVYMELSSLRSKDTAIYYCAREVNYYSAFDDWGQGTQVTVSS
VL: EIVMTQSPDTLSVSPGERATLSCRASQNVSSNLAWYQQKPGQAPRLLIYDASTRATGIPARFSGSGSGTEFTLAISSLQSEDFAVYYCQQYNFWWTFGQGTKVDIK
B5: 46472-3 (antibody, V domains shown)
VH: QVQLVESGGGVVQPGRSLRLSCAASGFTFSVYPMHWVRQAPGRGLEWVAVISYDGSNQYYADSVRGRFTISRDNSKNTLYLHMNSLRPEDTAVFYCARDRSATYYGPFDYWGQGTLVTVSS
VL: SSELTQDPAVSVALGQTVRITCQGDSLRSYSASWYQQKPSQAPVLVIYANNNRPSGIPDRFSGSNSGNTASLTITGAQAEDEADYYCNSRDNSGNHPVIFGGGTTLTVL
B6: 46472-2 (antibody, V domains shown)
VH: EVQLVQSGAEVKKPGESLRISCKGSGYRFITYWISWVRQMPGRGLEWMGKIDPSDSSTNYSPSFQGHVAISVDKSFNTAYLQWSRLNTSDTAMYYCAAGPTGYDLLTGQYFPYFNYWAQGTLVTVSS
VL: NFMLTQPHSVSESPGKTVSISCTRSSGSIASKFMQWYQQRPGSAPTILIYEDNLRPSGVPDRFSGSIDTSSNSALLTISGLKTEDEADYYCQSYHGSDVVFGGGTKLTVL

What was measured:
[1] = target: T1, Jo-1; experiment: Luminex AtheNA Multi-Lyte ANA-II Plus bead assay
[2] = target: T2, SS-B/La; experiment: Luminex AtheNA Multi-Lyte ANA-II Plus bead assay
[3] = target: T3, Scl 70; experiment: Luminex AtheNA Multi-Lyte ANA-II Plus bead assay
[4] = target: T4, centromere B; experiment: Luminex AtheNA Multi-Lyte ANA-II Plus bead assay
[5] = target: T5, SARS-CoV-2 S1 domain (SARS-CoV-2, UniProt P0DTC2 16-685); experiment: ELISA on SARS-CoV-2 subdomain proteins (FIG. 15A, FIG. 19A)
T5 construct: domain: S1; also called the S1 domain

[6] = target: T6, SARS-CoV-2 NTD (SARS-CoV-2, UniProt P0DTC2 16-305); experiment: ELISA on RBD and NTD proteins (FIG. 15B, FIG. 19B)
T6 construct: domain: NTD; also called the NTD; N-terminal domain

[7] = target: T7, SARS-CoV-2 S2 domain (SARS-CoV-2, UniProt P0DTC2 686-1213); experiment: ELISA on SARS-CoV-2 subdomain proteins (FIG. 15A, FIG. 19A)
T7 construct: domain: S2; also called the S2 domain

Binder | binding result [1] | binding result [2] | binding result [3] | binding result [4] | binding result [5] | binding result [6] | binding result [7]
B1 | no binding | no binding | no binding | no binding | binds | – | –
B2 | – | no binding | no binding | no binding | binds | binds | –
B3 | no binding | no binding | no binding | no binding | – | – | binds
B4 | no binding | no binding | no binding | no binding | – | – | binds
B5 | no binding | no binding | no binding | no binding | – | – | binds
B6 | no binding | no binding | no binding | no binding | – | – | binds
